According to patent US20260209317A1:
Read-outs that look alike come from different tables or passages of the source.

Tests used:
[1] = target: SARS-CoV-2 WA-1 S-2P spike protein (SARS-CoV-2) (UniProt P0DTC2)
[2] = target: SARS-CoV-2 Omicron BA.4.6 spike protein (on pseudotyped lentivirus) (SARS-CoV-2)
[3] = target: SARS-CoV-2 Omicron BA.4/BA.5 spike protein (on pseudotyped lentivirus) (SARS-CoV-2) (UniProt P0DTC2)
[4] = target: SARS-CoV-2 Omicron BQ.1.1 spike protein (on pseudotyped lentivirus) (SARS-CoV-2) (UniProt P0DTC2)
[5] = target: SARS-CoV-2 Omicron BA.2.75.2 spike protein (on pseudotyped lentivirus) (SARS-CoV-2)
[6] = target: SARS-CoV-2 Omicron BJ.1 spike protein (on pseudotyped lentivirus) (SARS-CoV-2) (UniProt P0DTC2)
[7] = target: SARS-CoV-2 Omicron BA.2.75 spike protein (on pseudotyped lentivirus) (SARS-CoV-2) (UniProt P0DTC2)
[8] = target: SARS-CoV-2 Omicron BA.4.6 spike protein (on pseudotyped lentivirus) (SARS-CoV-2); remark: listed apart in the source
[9] = target: SARS-CoV-2 Omicron XBB spike protein (on pseudotyped lentivirus) (SARS-CoV-2) (UniProt P0DTC2)
[10] = target: SARS-CoV-2 Omicron BA.1 spike protein (on pseudotyped lentivirus) (SARS-CoV-2) (UniProt P0DTC2)
[11] = target: SARS-CoV-2 Omicron BA.4/BA.5 spike protein (on pseudotyped lentivirus) (SARS-CoV-2) (UniProt P0DTC2); remark: listed apart in the source
[12] = target: SARS-CoV-2 Omicron BA.2.12.1 spike protein (on pseudotyped lentivirus) (SARS-CoV-2) (UniProt P0DTC2)

BD55-5514 (antibody)
% inhibition of ACE2 binding [1]: 99%

S2H97 (antibody)
% inhibition of ACE2 binding [1]: -3%

DH1047 (antibody)
% inhibition of ACE2 binding [1]: 113%

LY-CoV1404 (antibody)
% inhibition of ACE2 binding [1]: 99% | neutralization IC80 [2]: 1.4 ng/mL | neutralization IC50 [3]: 1 ng/mL | neutralization IC50 [4]: > 10000 ng/mL | neutralization IC80 [4]: > 10000 ng/mL | neutralization IC50 [5]: 1 ng/mL | neutralization IC80 [5]: 5 ng/mL | neutralization IC50 [6]: > 10000 ng/mL | neutralization IC80 [6]: > 10000 ng/mL | neutralization IC50 [7]: 3 ng/mL | neutralization IC80 [7]: 15 ng/mL | neutralization IC50 [8]: 0.4 ng/mL | neutralization IC80 [8]: 1 ng/mL | neutralization IC50 [9]: > 10000 ng/mL | neutralization IC80 [9]: > 10000 ng/mL | neutralization IC50 [10]: 2 ng/mL | neutralization IC80 [10]: 5 ng/mL | neutralization IC50 [11]: 1.4 ng/mL | neutralization IC80 [11]: 3 ng/mL | neutralization IC50 [12]: 1 ng/mL | neutralization IC80 [12]: 4 ng/mL

CB6 (antibody)
% inhibition of ACE2 binding [1]: 93%
